# Experimental data: publication PMC10138814, “Structural Insights into the Binding of Red Fluorescent Protein mCherry-Specific Nanobodies” (International Journal of Molecular Sciences, 2023)
# B1: His-SUMO-LaM1 (VHH)
# VHH: QVQLVESGGGLVQAGDSLRLSCAASGRTFENYAMGWFRQAPGKEREFVGAVSWGGGRTYYADNVKGRFTISRDNAKKNTVYLQMNSLKPEDTAVYYCAAKSVLTIATMRVPDEYNYWGQGTQVTVS
# notes: held in PDB 8IM1; Captured by its His tag on NTA biosensors in BLI; vector pET28a-SUMO; also called Sumo-His tagged LaM1; source: E. coli BL21(DE3), purified (Ni-NTA, eluted with imidazole); not shown: His, N-terminal, kept; SUMO, N-terminal, kept
# B2: His-SUMO-LaM3 (VHH)
# VHH: QVQLVQSGGGLVQAGGSLRLSCAASGRTFSDIAVGWFRQTPGKEREFVAAISWSGLIINYGDSVEDRFTISRDNAKSAVYLQMNSLKPEDTAVYYCAARIGMNYYYAREIEYPYWGQGTQVTVSK
# notes: held in PDB 8ILX; Captured by its His tag on NTA biosensors in BLI; vector pET28a-SUMO; also called Sumo-His tagged LaM3; source: E. coli BL21(DE3), purified (Ni-NTA, eluted with imidazole); not shown: His, N-terminal, kept; SUMO, N-terminal, kept
# B3: His-SUMO-LaM8 (VHH)
# VHH: QVQLVESGGGLVQAGGSLRLSCAVSGRPFSEYNLGWFRQAPGKEREFVARIRSSGTTVYTDSVKGRFSASRDNAKNMGYLQLNSLEPEDTAVYYCAMSRVDTDSPAFYDYWGQGTQVTVST
# notes: held in PDB 8IM0; Captured by its His tag on NTA biosensors in BLI; vector pET28a-SUMO; also called Sumo-His tagged LaM8; source: E. coli BL21(DE3), purified (Ni-NTA, eluted with imidazole); not shown: His, N-terminal, kept; SUMO, N-terminal, kept
# B4: LaM1 (VHH)
# VHH: QVQLVESGGGLVQAGDSLRLSCAASGRTFENYAMGWFRQAPGKEREFVGAVSWGGGRTYYADNVKGRFTISRDNAKKNTVYLQMNSLKPEDTAVYYCAAKSVLTIATMRVPDEYNYWGQGTQVTVS
# notes: Tag-removed form; also called llama nanobody against mCherry 1; source: E. coli BL21(DE3), purified (Ni-NTA, ULP1 cleavage on the column, ion exchange or size exclusion chromatography); not shown: His, N-terminal, cleaved; SUMO, N-terminal, cleaved
# B5: LaM3 (VHH)
# VHH: QVQLVQSGGGLVQAGGSLRLSCAASGRTFSDIAVGWFRQTPGKEREFVAAISWSGLIINYGDSVEDRFTISRDNAKSAVYLQMNSLKPEDTAVYYCAARIGMNYYYAREIEYPYWGQGTQVTVSK
# notes: Tag-removed form; also called llama nanobody against mCherry 3; source: E. coli BL21(DE3), purified (Ni-NTA, ULP1 cleavage on the column, ion exchange or size exclusion chromatography); not shown: His, N-terminal, cleaved; SUMO, N-terminal, cleaved
# B6: LaM8 (VHH)
# VHH: QVQLVESGGGLVQAGGSLRLSCAVSGRPFSEYNLGWFRQAPGKEREFVARIRSSGTTVYTDSVKGRFSASRDNAKNMGYLQLNSLEPEDTAVYYCAMSRVDTDSPAFYDYWGQGTQVTVST
# notes: Tag-removed form; also called llama nanobody against mCherry 8; source: E. coli BL21(DE3), purified (Ni-NTA, ULP1 cleavage on the column, ion exchange or size exclusion chromatography); not shown: His, N-terminal, cleaved; SUMO, N-terminal, cleaved
# What was measured:
# Settings in all cases: both partners purified
# mCherry [1] = molecular target: T1, mCherry (Discosoma sp. DsRed-derived, engineered …, chromophore (residues not given)); test: BLI; His-SUMO-LaM nanobody (100 nM) loaded on Ni-NTA biosensors; mCherry or DsRed in solution; 20 mM HEPES pH 7.4, 150 mM NaCl, 0.005% Tween-20; association 600 s, dissociation 600 s; 1:1 global fit
# T1 construct: Engineered monomeric derivative of DsRed; also called His10-TEV site-mCherry (before cleavage); H10T-mCherry; source: E. coli BL21(DE3), purified (Ni-NTA, TEV cleavage on the column); not shown: His10, N-terminal, cleaved
# DsRed = molecular target: T2, DsRed (Discosoma sp., UniProt Q9U6Y8); test: as above
# T2 construct: DsRed red fluorescent protein; PDB 1ZGO was used for structural alignment; His6-SUMO-DsRed printed as 39.6 kD; also called tetrameric DsRed protein; His6-SUMO-DsRed (before cleavage); source: prokaryotic expression system, purified (tags removed by ULP1 on the column); not shown: His6, N-terminal, cleaved; SUMO, N-terminal, cleaved
# T2 sequence (Q9U6Y8 whole entry): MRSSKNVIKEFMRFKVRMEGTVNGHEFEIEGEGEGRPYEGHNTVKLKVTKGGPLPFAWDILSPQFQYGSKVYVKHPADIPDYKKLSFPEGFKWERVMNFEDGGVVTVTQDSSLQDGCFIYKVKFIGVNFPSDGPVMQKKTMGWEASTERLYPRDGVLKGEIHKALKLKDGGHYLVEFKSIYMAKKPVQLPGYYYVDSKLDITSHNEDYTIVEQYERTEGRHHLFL
# mCherry [2] = molecular target: T1, mCherry; test: ITC; 100 uM nanobody in the syringe into 10 uM mCherry (or 8.9 uM mCherry-LaM1 or mCherry-LaM3 complex) in the cell; 25 °C; one set of sites
Binder,Kd (mCherry [1]) [nM],koff (mCherry [1]) [s⁻¹],kon (mCherry [1]) [M⁻¹ s⁻¹],Kd (DsRed) [nM],koff (DsRed) [s⁻¹],kon (DsRed) [M⁻¹ s⁻¹],Kd (mCherry [2]) [nM],dH (mCherry [2]) [kcal/mol],stoichiometry N (mCherry [2]) [sites]
B1,12.9,0.00117,91300,,,,,,
B2,30.6,0.00324,106000,7130,0.000443,62.2 ± 1.02,,,
B3,36.8,0.00926,252000,,,,,,
B4,,,,,,,289,-28.7 ± 0.906,1
B5,,,,,,,13.7,-13.7 ± 0.157,0.913
B6,,,,,,,199,-11.2 ± 1.51,0.842
